Assay results from patent publication US5777085, “Humanized antibodies reactive with GPIIB/IIIA” (Protein Design Labs, Inc., dated 1998).

Target: GPIIb/IIIa (human, UniProt P08514)
Experiment: competitive binding on HEL 92.1.7 cells, radioiodinated mouse C4G1 as tracer
Method: The affinities of the humanized C4G1 antibody, Fab fragment and F(ab')_2-1 fragment were determined by competitive binding with the respective mouse C4G1 antibody and fragments. Purified human platelets were used as source of the GPIIb/IIIa antigen. The platelets were purified from buffy coats from normal human donors by centrifugation on ficoll-hypaque. Increasing amounts of humanized or mouse competitor antibody or fragment was added to 4.5 ng of radioiodinated tracer C4G1 antibody (3.5 µCi/ug) and incubated with 3×10^7 platelets in 0.2 ml of modified Tyrode's buffer for 1 hr. at room temperature. Cells were washed with 2 ml of ice-cold buffer and pelleted. The radioactivities were measured, and the concentrations of bound and free tracer antibody were calculated (FIG. 8). The binding affinities of the various antibodies and fragments were calculated as in Queen et al., Proc. Nat. Acad. Sci. USA 86, 10029 (1989). […] The same result was obtained when competitive binding was performed with HEL 92.1.7 cells as source of GPIIb/IIIa antigen. Moreover all the actual binding affinities to these cells were about 10^8 M^-1 or higher.

B1: humanized C4G1 antibody (antibody, V domains shown)
VH: QVQLVQSGAEVKKPGSSVKVSCKASGYAFTNYLIEWVRQAPGQGLEWIGVIYPGSGGTNYNEKFKGRVTLTVDESTNTAYMELSSLRSEDTAVYFCARRDGNYGWFAYWGQGTLVTVSS
VL: DIQMTQTPSTLSASVGDRVTISCRASQDINNYLNWYQQKPGKAPKLLIYYTSTLHSGVPSRFSGSGSGTDYTLTISSLQPDDFATYFCQQGNTLPWTFGQGTKVEVKR
- Ka: > 1e+08 M⁻¹

B2: mouse C4G1 antibody (antibody, V domains shown)
VH: QVQLQQSGAELVGPGTSVRVSCKASGYAFTNYLIEWVKQRPGQGLEWIGVIYPGSGGTNYNEKFKGKATLTVDKSSTTAYMQLSSLTSDDSAVYFCARRDGNYGWFAYWGRGTLVTVSA
VL: DIQMTQTTSSLSASLGDRVTISCRASQDINNYLNWYQQKPDGIVKLLIYYTSTLHSGVPSRFSGSGSGTDYSLTISNLEQEDIATYFCQQGNTLPWTFGGGTKLEIK
- Ka: ≥ 1e+08 M⁻¹

B3: mouse C4G1 F(ab')2 fragment (other)
VH: B2 VH
VL: B2 VL
- Ka: ≥ 1e+08 M⁻¹

B4: mouse C4G1 Fab fragment (Fab, V domains shown)
VH: B2 VH
VL: B2 VL
- Ka: ≥ 1e+08 M⁻¹
